Data published in PMC5127643, “Dynamic control of Hsf1 during heat shock by a chaperone switch and phosphorylation” (eLife, 2016).
One block for each binder: values may come before it.

Assays:
Details in all cases: both partners purified
[1] = target: T1, 3xFLAG-Hsf1 (S. cerevisiae, UniProt P10961 1-833); experiment: co-IP; anti-FLAG IP of recombinant proteins with rHsf1-3xFLAG as bait, Western blot anti-HIS for rSsa2; IP buffer alone or with 1 mM ATP
T1 construct: The text prints 3xFLAG-Hsf1 and the legend prints rHsf1-3xFLAG, so the tag end is left open; also called rHsf1-3xFLAG; rHsf1; source: construct not described in the methods
T1 sequence (looked up): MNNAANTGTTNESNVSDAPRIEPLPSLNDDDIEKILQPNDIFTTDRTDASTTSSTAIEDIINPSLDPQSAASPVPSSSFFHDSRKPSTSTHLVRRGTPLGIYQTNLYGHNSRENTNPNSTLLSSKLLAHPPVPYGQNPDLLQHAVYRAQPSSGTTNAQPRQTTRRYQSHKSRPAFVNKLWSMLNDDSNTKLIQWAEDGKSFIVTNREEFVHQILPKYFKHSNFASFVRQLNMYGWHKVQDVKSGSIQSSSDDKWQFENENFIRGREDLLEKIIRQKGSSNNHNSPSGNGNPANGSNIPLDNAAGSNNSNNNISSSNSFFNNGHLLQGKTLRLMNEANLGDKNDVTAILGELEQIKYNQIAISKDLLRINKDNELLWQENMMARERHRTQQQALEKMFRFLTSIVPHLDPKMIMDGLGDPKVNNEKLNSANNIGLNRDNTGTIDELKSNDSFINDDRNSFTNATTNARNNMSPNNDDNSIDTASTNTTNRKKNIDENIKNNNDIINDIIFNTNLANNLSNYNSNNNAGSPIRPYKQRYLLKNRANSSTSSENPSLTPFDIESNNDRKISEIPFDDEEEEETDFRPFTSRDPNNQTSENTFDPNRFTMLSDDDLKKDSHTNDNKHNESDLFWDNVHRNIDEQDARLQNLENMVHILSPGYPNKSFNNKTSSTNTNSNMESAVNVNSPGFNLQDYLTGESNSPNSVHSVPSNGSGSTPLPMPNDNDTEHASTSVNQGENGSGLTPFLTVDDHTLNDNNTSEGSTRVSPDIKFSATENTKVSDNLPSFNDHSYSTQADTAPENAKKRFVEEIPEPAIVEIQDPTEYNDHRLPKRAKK

[2] = target: T2, Aβ42 peptide (UniProt P05067 672-713); experiment: co-IP; anti-FLAG IP of recombinant proteins with rHsf1-3xFLAG as bait, in the presence of five-fold molar excess (25 µM) of Aβ42 peptide as competitor
T2 construct: also called hydrophobic peptide

[3] = target: T3, Hsf1-6xHIS phosphorylated in vitro by casein kinase II (S. cerevisiae, UniProt P10961 1-833, phosphorylated by casein kinase II (mobility shift); sites not stated); experiment: co-IP; anti-FLAG IP of recombinant proteins with 3xFLAG-rSsa2 as bait; rHsf1 pre-incubated with ATP alone, ATP and active CKII, or ATP and boiled CKII; Western blot anti-HIS for rHsf1
T3 construct: Full-length wild type HSF1 cloned into pET32b with a C-terminal 6x-HIS tag; also called rHsf1 pre-incubated with ATP and active CKII; phosphorylated Hsf1; source: E. coli BL21(DE3), purified (Ni-NTA agarose), then phosphorylated in vitro with casein kinase II (NEB); not shown: 6xHIS, C-terminal, kept
T3 sequence (looked up): T1 sequence (looked up)

[4] = target: T4, Hsf1-6xHIS (S. cerevisiae, UniProt P10961 1-833); experiment: as above
T4 construct: Full-length wild type HSF1 cloned into pET32b with a C-terminal 6x-HIS tag; pET32b normally adds N-terminal thioredoxin, His and S tags; Plasmids are in Supplementary file 2; also called rHsf1; recombinant Hsf1; source: E. coli BL21(DE3), purified (Ni-NTA agarose, imidazole elution); not shown: 6xHIS, C-terminal, kept
T4 sequence (looked up): T1 sequence (looked up)

T2 sequence (P05067 672-713): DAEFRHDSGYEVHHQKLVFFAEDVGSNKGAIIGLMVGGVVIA

binding result [1]: binds
binding result [2]: binds
B1: recombinant Ssa2 (HIS-tagged, tags reversed) (natural protein)
chain: not shown
notes: also called rSsa2; source: construct not described in the methods

binding result [3]: binds
binding result [4]: binds
B2: 6xHIS-3xFLAG-Ssa2 (natural protein)
chain: not shown
notes: Full length SSA2 cloned into pET32b with an N-terminal 6xHIS-3xFLAG tag; pET32b normally adds N-terminal thioredoxin, His and S tags; Plasmids are in Supplementary file 2; also called FLAG-rSsa2; 3xFLAG-rSsa2; source: E. coli BL21(DE3), purified (Ni-NTA agarose, imidazole elution); not shown: 6xHIS, N-terminal, kept; 3xFLAG, N-terminal, kept
